Target: PhaPTD from Halomonas bluephagenesis TD01 (Halomonas bluephagenesis TD01)
Test: SEC-MALS; Superdex 200 gel filtration connected to an eighteen-angle static light scattering system (DAWN HELEOS II); HBS buffer (1.5 mM Na2HPO4, 50 mM HEPS, 150 mM NaCl); sample at 1 mg/mL; 0.5 mL/min; 16°C

PhaPTD from Halomonas bluephagenesis TD01 (natural protein)
stoichiometry N: 3

From publication PMC5658623
